Laboratory results from patent publication US20220332804A1 (CSL INNOVATION, published 2022).

Experiments:
Test in all cases: SPR, KD relative to WT C2;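 further: biacore SPR at 37 °C, anti-C2 mAbs captured via immobilised goat anti-human IgG, C2 alanine or serine surface mutants as analytes, 1:1 model fitted, double-referenced sensograms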
human C2 K329A = molecular target: T1, human C2 K329A (human, UniProt P06681 21-752)
T1 sequence: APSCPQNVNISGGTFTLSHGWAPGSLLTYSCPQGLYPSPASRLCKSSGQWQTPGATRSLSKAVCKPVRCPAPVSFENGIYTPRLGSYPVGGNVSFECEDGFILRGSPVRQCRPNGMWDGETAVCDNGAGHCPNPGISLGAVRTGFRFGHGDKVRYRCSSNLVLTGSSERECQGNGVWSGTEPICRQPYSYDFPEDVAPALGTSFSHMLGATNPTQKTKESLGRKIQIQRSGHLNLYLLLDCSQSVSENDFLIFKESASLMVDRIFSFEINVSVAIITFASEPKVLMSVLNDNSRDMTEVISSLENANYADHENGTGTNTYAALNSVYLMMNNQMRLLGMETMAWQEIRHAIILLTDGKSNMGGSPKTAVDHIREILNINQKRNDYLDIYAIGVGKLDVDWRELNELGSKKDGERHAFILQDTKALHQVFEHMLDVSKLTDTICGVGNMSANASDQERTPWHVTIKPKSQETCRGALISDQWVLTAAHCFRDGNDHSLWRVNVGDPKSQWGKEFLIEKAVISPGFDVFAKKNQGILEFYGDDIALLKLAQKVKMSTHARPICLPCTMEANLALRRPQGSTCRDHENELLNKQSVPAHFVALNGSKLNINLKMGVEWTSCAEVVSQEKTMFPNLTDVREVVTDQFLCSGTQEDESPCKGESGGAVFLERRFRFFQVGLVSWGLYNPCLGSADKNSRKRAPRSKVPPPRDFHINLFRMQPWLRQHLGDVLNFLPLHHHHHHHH

human C2 V418A = molecular target: T2, human C2 V418A (human, UniProt P06681 21-752)
T2 sequence: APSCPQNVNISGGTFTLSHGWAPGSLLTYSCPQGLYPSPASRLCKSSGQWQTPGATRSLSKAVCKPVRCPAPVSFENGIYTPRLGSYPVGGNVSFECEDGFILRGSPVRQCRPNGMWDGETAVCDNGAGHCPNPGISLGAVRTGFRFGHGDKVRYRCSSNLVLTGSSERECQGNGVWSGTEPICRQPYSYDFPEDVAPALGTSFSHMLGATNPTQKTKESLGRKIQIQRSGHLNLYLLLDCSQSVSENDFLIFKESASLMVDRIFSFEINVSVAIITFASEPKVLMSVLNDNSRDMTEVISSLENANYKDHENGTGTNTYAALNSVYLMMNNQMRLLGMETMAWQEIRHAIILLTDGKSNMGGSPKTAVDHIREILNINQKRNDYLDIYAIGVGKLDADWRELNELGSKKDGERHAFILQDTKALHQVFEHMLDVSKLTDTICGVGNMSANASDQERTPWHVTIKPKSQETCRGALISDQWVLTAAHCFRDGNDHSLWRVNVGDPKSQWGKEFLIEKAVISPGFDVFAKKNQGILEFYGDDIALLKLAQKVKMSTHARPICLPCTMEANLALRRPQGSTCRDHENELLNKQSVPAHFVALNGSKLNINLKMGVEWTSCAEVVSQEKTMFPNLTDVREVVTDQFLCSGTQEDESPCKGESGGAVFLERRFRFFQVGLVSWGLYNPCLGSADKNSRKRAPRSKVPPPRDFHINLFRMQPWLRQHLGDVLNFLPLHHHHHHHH

human C2 T491A = molecular target: T3, human C2 T491A (human, UniProt P06681 21-752)
T3 sequence: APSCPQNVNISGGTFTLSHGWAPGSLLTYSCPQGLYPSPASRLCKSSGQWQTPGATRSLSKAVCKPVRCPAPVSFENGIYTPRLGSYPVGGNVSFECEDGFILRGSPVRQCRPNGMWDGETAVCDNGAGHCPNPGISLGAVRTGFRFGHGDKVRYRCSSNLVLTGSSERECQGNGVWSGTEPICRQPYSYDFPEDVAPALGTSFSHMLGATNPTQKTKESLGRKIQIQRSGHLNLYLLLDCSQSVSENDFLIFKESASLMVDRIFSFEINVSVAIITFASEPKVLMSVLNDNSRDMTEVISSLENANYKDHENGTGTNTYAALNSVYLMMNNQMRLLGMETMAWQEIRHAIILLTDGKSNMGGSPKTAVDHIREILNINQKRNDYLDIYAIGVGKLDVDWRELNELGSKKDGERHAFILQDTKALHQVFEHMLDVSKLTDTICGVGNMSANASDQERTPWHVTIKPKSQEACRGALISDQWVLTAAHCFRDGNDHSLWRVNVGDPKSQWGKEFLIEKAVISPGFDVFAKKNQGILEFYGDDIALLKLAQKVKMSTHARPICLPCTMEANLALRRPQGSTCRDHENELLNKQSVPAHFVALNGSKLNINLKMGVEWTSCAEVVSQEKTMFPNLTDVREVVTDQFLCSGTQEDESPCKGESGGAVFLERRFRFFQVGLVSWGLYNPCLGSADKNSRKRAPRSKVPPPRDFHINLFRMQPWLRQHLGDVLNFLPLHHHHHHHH

human C2 E556A = molecular target: T4, human C2 E556A (human, UniProt P06681 21-752)
T4 sequence: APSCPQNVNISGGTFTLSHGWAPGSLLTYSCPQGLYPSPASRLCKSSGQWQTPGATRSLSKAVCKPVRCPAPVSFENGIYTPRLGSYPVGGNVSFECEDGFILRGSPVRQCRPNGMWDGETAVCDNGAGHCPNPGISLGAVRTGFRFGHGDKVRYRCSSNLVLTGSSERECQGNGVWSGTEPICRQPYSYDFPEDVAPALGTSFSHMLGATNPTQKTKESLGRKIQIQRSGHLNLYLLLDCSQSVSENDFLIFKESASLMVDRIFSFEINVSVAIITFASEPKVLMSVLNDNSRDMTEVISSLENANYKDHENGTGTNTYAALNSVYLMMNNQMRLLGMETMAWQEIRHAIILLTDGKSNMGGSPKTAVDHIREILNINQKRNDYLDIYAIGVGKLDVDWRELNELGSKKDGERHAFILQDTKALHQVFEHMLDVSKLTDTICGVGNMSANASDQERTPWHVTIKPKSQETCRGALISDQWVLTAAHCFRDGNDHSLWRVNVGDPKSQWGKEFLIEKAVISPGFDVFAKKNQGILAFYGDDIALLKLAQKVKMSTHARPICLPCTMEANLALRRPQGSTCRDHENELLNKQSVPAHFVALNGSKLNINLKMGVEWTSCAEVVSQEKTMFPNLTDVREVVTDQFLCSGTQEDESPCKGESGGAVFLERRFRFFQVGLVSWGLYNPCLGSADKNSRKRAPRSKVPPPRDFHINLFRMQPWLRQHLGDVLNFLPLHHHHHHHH

B1: RF16-226 (antibody, human IgG4 S228P, lambda)
heavy: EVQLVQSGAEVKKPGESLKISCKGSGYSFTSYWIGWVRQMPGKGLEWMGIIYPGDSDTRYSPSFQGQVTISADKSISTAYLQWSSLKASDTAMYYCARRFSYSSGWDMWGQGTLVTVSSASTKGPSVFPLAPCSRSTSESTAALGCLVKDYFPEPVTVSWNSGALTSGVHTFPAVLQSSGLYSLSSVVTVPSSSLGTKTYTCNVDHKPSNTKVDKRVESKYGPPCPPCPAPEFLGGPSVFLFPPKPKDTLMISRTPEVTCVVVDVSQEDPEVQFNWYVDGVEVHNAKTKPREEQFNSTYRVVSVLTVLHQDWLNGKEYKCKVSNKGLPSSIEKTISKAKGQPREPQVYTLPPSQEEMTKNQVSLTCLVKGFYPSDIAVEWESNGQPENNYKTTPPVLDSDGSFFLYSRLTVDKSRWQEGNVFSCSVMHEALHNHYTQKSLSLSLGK
light: SYELTQPPSVSVSPGQTARITCSGDALTSKYVAWYQQKSGLAPLLVIYEDTRRPSGIPAKFSGSSSGSVATLTISGAHGDDEADYYCYSTDASGHQRVFGGGTKLTVLSQPKAAPSVTLFPPSSEELQANKATLVCLISDFYPGAVTVAWKADGSPVKAGVETTKPSKQSNNKYAASSYLSLTPEQWKSHRSYSCQVTHEGSTVEKTVAPTECS
notes: pH-dependent anti-C2 antibody from a phage display library; also called WT
Fold diff (human C2 K329A): 3 fold | Fold diff (human C2 V418A): 1 fold | Fold diff (human C2 T491A): 2 fold | Fold diff (human C2 E556A): 1 fold
